Experiment in all cases: high-throughput RNA pulldown from lysate on Ni-NTA beads; HRP: 50 mM Tris pH 8, 150 mM NaCl, 1 mM beta-mercaptoethanol, 50 ug/ml BSA, 3 ug/ml yeast RNA, 0.5% heparin; ITC and FP: Tris pH 8, 200 mM KCl, 5% glycerol; MST: 50 mM Tris pH 8, 200 mM NaCl, 1 mM DTT, BSA, heparin, 0.05% Tween 20
Common to all, as to conditions: tags: N-terminal His-eGFP

Series [1] has as its target T1, GFP-9S library array, motif 4 ND D124I (synthetic construct, D124I).
T1 chain: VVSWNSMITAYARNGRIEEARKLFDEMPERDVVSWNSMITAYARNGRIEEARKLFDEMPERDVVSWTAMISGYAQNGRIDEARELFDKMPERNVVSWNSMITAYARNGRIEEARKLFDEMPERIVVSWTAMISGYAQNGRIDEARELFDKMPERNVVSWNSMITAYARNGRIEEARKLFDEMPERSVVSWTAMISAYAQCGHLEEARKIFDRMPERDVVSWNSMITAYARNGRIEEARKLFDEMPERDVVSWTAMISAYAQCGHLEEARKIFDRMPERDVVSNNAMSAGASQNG

Series [2] addresses T2, GFP-9S library array, motif 4 ND N98T;D124S (synthetic construct, N98T;D124S).
T2 chain: T1 chain with N98T, I124S

Series [3] deals with T3, GFP-9S library array, motif 4 ND N98F;D124W (synthetic construct, N98F;D124W).
T3 chain: T1 chain with N98F, I124W

The target in series [4] is T4, GFP-9S library array, motif 4 ND N98W;D124K (synthetic construct, N98W;D124K).
T4 chain: T1 chain with N98W, I124K

In series [5] the target is T5, GFP-9S library array, motif 4 ND N98I;D124R (synthetic construct, N98I;D124R).
T5 chain: T1 chain with N98I, I124R

Residue numbers refer to the chain shown, from its start.

B1: Cy5-rpoA-G (ssRNA)
RNA: AUUAGACGUGA
Consider B1, for which the Kd worked out at 86.2 nM in series [1] (label: 5' Cy5); 65.5 nM in series [2] (label: 5' Cy5); 72.2 nM in series [3] (label: 5' Cy5); 48.1 nM in series [4] (label: 5' Cy5); 97.3 nM in series [5] (label: 5' Cy5).

B2: IR-rpoA-A (ssRNA)
RNA: AUUAAACGUGA
For the molecule B2, the Kd in series [1] (label: 5' IRDye 800CW) amounted to 184 nM; in series [2] (label: 5' IRDye 800CW) it was 18.4 nM; in series [3] (label: 5' IRDye 800CW), 236 nM; in series [4] (label: 5' IRDye 800CW), 177 nM; in series [5] (label: 5' IRDye 800CW) it was 168 nM.

B3: IR-rpoA-U (ssRNA)
RNA: AUUAUACGUGA
As to B3, the Kd in series [1] (label: 5' IRDye 800CW) is 26.7 nM; in series [2] (label: 5' IRDye 800CW), 48.8 nM; in series [3] (label: 5' IRDye 800CW), 364 nM; in series [4] (label: 5' IRDye 800CW), 154 nM; in series [5] (label: 5' IRDye 800CW), 113 nM.

B4: Cy5-rpoA (ssRNA)
RNA: AUUACACGUGA
For the molecule B4, the Kd worked out at 53.8 nM in series [1] (label: 5' Cy5); 37 nM in series [2] (label: 5' Cy5); 99.3 nM in series [3] (label: 5' Cy5); 72.6 nM in series [4] (label: 5' Cy5); 86.4 nM in series [5] (label: 5' Cy5).

One may read the Kd as the constant that tells how readily two partners part at equilibrium. Low values mean higher affinity, high ones lower affinity.

Values taken from paper PMC8809517, “Cofactor-independent RNA editing by a synthetic S-type PPR protein”.
